Here are results for 2 molecules from patent publication US20030138840A1.

The target of assay [1] is Recombinant human CPP32 protein with a C-terminal 6His tag, (p17p12)2 tetramer (human) (UniProt P42574). Briefly: cell-based or functional assay.
In assay [2] the target is CPP32 P12 subunit + Leu + Glu + 6 His (human) (UniProt P42574). Briefly: analysis of the purified protein (SDS-PAGE, RP-HPLC, MALDI-TOF MS, N-terminal sequence and amino acid analysis).

Regarding “Ac-Asp-Val-Ala-Asp-fluoromethylketone (peptide)”, the enzyme inhibited (CPP32 protease activity) in assay [1] is 99.9%.

B1: CPP32 P17 subunit (enzyme, human, UniProt P42574 29-175, looked up)
chain: SGISLDNSYKMDYPEMGLCIIINNKNFHKSTGMTSRSGTDVDAANLRETFRNLKYEVRNKNDLTREEIVELMRDVSKEDHSKRSSFVCVLLSHGEEGIIFGTNGPVDLKKITNFFRGDRCRSLTGKPKLFIIQACRGTELDCGIETD
Regarding B1, the molar ratio in assay [2] was determined as 1 mol/mol.
